Laboratory results taken from the supplement of paper PMC7877785.
± gives the uncertainty stated by the source.

Test: self-splicing fitness, log relative to wild type (ln ratio); higher = more splicing; Tetrahymena group I intron in knt gene, E. coli kanamycin selection, DiMSum; sequences stand for … in CUCUCU…GGAGGGAAAAGUUAUCAGGCAUGCACCUGGUAGCUAGUCUUUAAACCAAUAGAUUGCAUCGGUUUAAAAGGCAAGACCGUCAAAUUGCGGGAAAGGGGUCAACAGCCGUUCAGUACCAAGUCUCAGGGGAAACUUUGAGAUGGCCUUGCAAAGGGUAUGGUAAUAAGCUGACGGACAUGGUCCUAACCACGCAGCCAAGUCCUAAGUCAACAGAUCUUCUGUUGAUAUGGAUGCAGUUCACAGACUAAAUGUCGGUCGGGGAAGAUGUAUUCUUCUCAUAAGAUAUAGUCGGACCUCUCCUUAAUGGGAGCUAGCGGAUGAAGUGAUGCAACACUGGAGCCGCUGGGAACUAAUUUGUAUGCGAAAGUAUAUUGAUUAGUUUUGGAGUACUCGUGGUCG
Summary of the method: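 Colonies from six replicate transformations of E. coli BL21(DE3) were pooled and amplicon-sequenced on an Illumina HiSeq 2500. The library placed an intron with all eight P1ex-region nucleotides randomised inside the knt kanamycin-resistance gene on pET-22b(+), and cells grew overnight at 37°C or 30°C on LB agar with or without 25 μg/mL kanamycin (plus 100 μg/mL carbenicillin, 50 μM IPTG, 0.2% rhamnose). Fitness is the DiMSum error-weighted combination of wild-type-normalised replicate fold changes, kanamycin versus none.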

Row | Sequence | self-splicing fitness (ln) (30 °C) | self-splicing fitness (ln) (37 °C)
1 | CACUAGCAAUAUUACGCCAU | -3.88 ± 0.44 | -2.45 ± 0.28
2 | CACUAGCAAUAUUACGCCGU | -1.95 ± 0.35 | -1.18 ± 0.35
3 | CACUAGCAAUAUUACGCCUA | -3.31 ± 0.19 | -2.36 ± 0.16
4 | CACUAGCAAUAUUACGCCUC | – | -1.72 ± 0.23
5 | CACUAGCAAUAUUACGCGUA | -1.84 ± 0.093 | -0.0161 ± 0.075
6 | CACUAGCAAUAUUACGCGUC | -1.84 ± 0.1 | -2.75 ± 0.21
7 | CACUAGCAAUAUUACGCUUA | -2.65 ± 0.21 | -1.2 ± 0.13
8 | CACUAGCAAUAUUACGGCUA | -3.46 ± 0.47 | -2.1 ± 0.32
9 | CACUAGCAAUAUUACGGUCC | -2.4 ± 0.12 | -1.29 ± 0.15
10 | CACUAGCAAUAUUACGUAAG | 0.264 ± 0.061 | 0.0438 ± 0.073
11 | CACUAGCAAUAUUACGUAGG | -1.04 ± 0.1 | -0.696 ± 0.14
12 | CACUAGCAAUAUUACGUCAG | -0.817 ± 0.062 | 0.566 ± 0.071
13 | CACUAGCAAUAUUACGUCGC | -3.66 ± 0.24 | -2.66 ± 0.27
14 | CACUAGCAAUAUUACGUGGC | -3.89 ± 0.23 | -3.28 ± 0.2
15 | CACUAGCAAUAUUACGUUAC | -3.4 ± 0.14 | -2.77 ± 0.16
16 | CAGAAGCAAUAUUACGACUA | 0.00435 ± 0.063 | 0.187 ± 0.081
17 | CAGAAGCAAUAUUACGAUGA | -2.08 ± 0.12 | -0.735 ± 0.086
18 | CAGAAGCAAUAUUACGAUUU | -2.06 ± 0.096 | -1.16 ± 0.11
19 | CAGAAGCAAUAUUACGCAAA | -3.57 ± 0.35 | -1.81 ± 0.26
20 | CAGAAGCAAUAUUACGCCAC | – | -0.904 ± 0.4
21 | CAGAAGCAAUAUUACGCCAU | -2.66 ± 0.14 | -2.77 ± 0.18
22 | CAGAAGCAAUAUUACGCCGA | -3.49 ± 0.41 | -2.75 ± 0.33
23 | CAGAAGCAAUAUUACGCGAC | – | -2.94 ± 0.32
24 | CAGAAGCAAUAUUACGCGAG | -2.62 ± 0.097 | -1.49 ± 0.096
25 | CAGAAGCAAUAUUACGGAGC | -3.14 ± 0.34 | -2.32 ± 0.31

Row | Sequence | self-splicing fitness (ln) (30 °C) | self-splicing fitness (ln) (37 °C)
26 | CAGAAGCAAUAUUACGGAUG | -2.75 ± 0.17 | -2.6 ± 0.21
27 | CAGAAGCAAUAUUACGGCCG | -0.0187 ± 0.082 | -0.102 ± 0.14
28 | CAGAAGCAAUAUUACGGUCU | -1.52 ± 0.064 | -1.09 ± 0.082
29 | CAGAAGCAAUAUUACGUACA | -2.14 ± 0.11 | -0.932 ± 0.12
30 | CAGAAGCAAUAUUACGUAUU | -3.79 ± 0.23 | -2.28 ± 0.15
31 | CAGAAGCAAUAUUACGUCGC | -3.55 ± 0.23 | -2.76 ± 0.28
32 | CAGAAGCAAUAUUACGUGCA | -2.49 ± 0.14 | -1.75 ± 0.14
33 | CAGCAGCAAUAUUACGAACU | -2.68 ± 0.16 | -2.11 ± 0.14
34 | CAGCAGCAAUAUUACGACGU | -0.896 ± 0.076 | -0.529 ± 0.079
35 | CAGCAGCAAUAUUACGAGCU | -3.07 ± 0.21 | -1.76 ± 0.2
36 | CAGCAGCAAUAUUACGCAUC | -2.71 ± 0.12 | -1.16 ± 0.1
37 | CAGCAGCAAUAUUACGCCAU | -3.12 ± 0.24 | -1.78 ± 0.21
38 | CAGCAGCAAUAUUACGCCUC | -1.98 ± 0.13 | -0.839 ± 0.14
39 | CAGCAGCAAUAUUACGCGGU | -1.52 ± 0.1 | -1.74 ± 0.18
40 | CAGCAGCAAUAUUACGCGUU | -3.04 ± 0.14 | -2.45 ± 0.17
41 | CAGCAGCAAUAUUACGCUUC | -3.43 ± 0.19 | -2.63 ± 0.28
42 | CAGCAGCAAUAUUACGCUUG | -2.88 ± 0.12 | -2.61 ± 0.19
43 | CAGCAGCAAUAUUACGCUUU | -2.76 ± 0.14 | -1.63 ± 0.12
44 | CAGCAGCAAUAUUACGGAAC | -1.79 ± 0.3 | -1.87 ± 0.44
45 | CAGCAGCAAUAUUACGGAAU | -4.16 ± 0.24 | -1.95 ± 0.16
46 | CAGCAGCAAUAUUACGGACG | -0.284 ± 0.069 | -0.581 ± 0.081
47 | CAGCAGCAAUAUUACGGAGC | -3.3 ± 0.33 | -2.68 ± 0.39
48 | CAGCAGCAAUAUUACGGCAC | -3.25 ± 0.15 | -0.851 ± 0.17
49 | CAGCAGCAAUAUUACGGGAU | -4.61 ± 0.22 | -2.35 ± 0.12
50 | CAGCAGCAAUAUUACGGGGC | -3.66 ± 0.14 | -2.45 ± 0.15

Row | Sequence | self-splicing fitness (ln) (30 °C) | self-splicing fitness (ln) (37 °C)
51 | CAGCAGCAAUAUUACGGGUC | -2.33 ± 0.14 | -1.96 ± 0.19
52 | CAGCAGCAAUAUUACGGUAC | -3.46 ± 0.14 | -2.26 ± 0.14
53 | CAGCAGCAAUAUUACGGUCG | 0.264 ± 0.053 | 0.584 ± 0.08
54 | CAGCAGCAAUAUUACGGUGA | -2 ± 0.083 | -0.913 ± 0.086
55 | CAGCAGCAAUAUUACGUGAU | -3.66 ± 0.15 | -1.78 ± 0.14
56 | CAGCAGCAAUAUUACGUUGA | -2.82 ± 0.16 | -1.93 ± 0.18
57 | CAGCAGCAAUAUUACGUUUG | -3.1 ± 0.16 | -2.01 ± 0.16
58 | CAGCAGCAAUAUUACGUUUU | -2.86 ± 0.1 | -1.15 ± 0.11
59 | CAGGAGCAAUAUUACGAAAG | -1.8 ± 0.17 | -1.11 ± 0.23
60 | CAGGAGCAAUAUUACGAAGU | -4.19 ± 0.28 | -2.39 ± 0.37
61 | CAGGAGCAAUAUUACGAAUU | -3.43 ± 0.35 | -2.43 ± 0.3
62 | CAGGAGCAAUAUUACGACAG | -0.986 ± 0.27 | -1.19 ± 0.27
63 | CAGGAGCAAUAUUACGAGCA | -2.15 ± 0.33 | -1.53 ± 0.36
64 | CAGGAGCAAUAUUACGAGGG | -3.21 ± 0.24 | -1.97 ± 0.2
65 | CAGGAGCAAUAUUACGCAGU | -2 ± 0.31 | -1.44 ± 0.29
66 | CAGGAGCAAUAUUACGCCAA | -2.89 ± 0.37 | –
67 | CAGGAGCAAUAUUACGCCCG | -2.75 ± 0.42 | -0.874 ± 0.37
68 | CAGGAGCAAUAUUACGCCCU | – | -1.65 ± 0.32
69 | CAGGAGCAAUAUUACGCCUA | -0.617 ± 0.19 | -1.01 ± 0.21
70 | CAGGAGCAAUAUUACGCCUG | -3.09 ± 0.29 | -1.01 ± 0.22
71 | CAGGAGCAAUAUUACGCGCU | -2.49 ± 0.2 | -2.62 ± 0.41
72 | CAGGAGCAAUAUUACGCUCG | -3.55 ± 0.34 | -1.37 ± 0.33
73 | CAGGAGCAAUAUUACGGAUU | -3.18 ± 0.23 | -2.52 ± 0.37
74 | CAGGAGCAAUAUUACGGCAA | -4.26 ± 0.32 | -2.84 ± 0.33
75 | CAGGAGCAAUAUUACGGCCG | -0.398 ± 0.09 | 0.0497 ± 0.12

Row | Sequence | self-splicing fitness (ln) (30 °C) | self-splicing fitness (ln) (37 °C)
76 | CAGGAGCAAUAUUACGGCUG | -2.97 ± 0.18 | -2.37 ± 0.22
77 | CAGGAGCAAUAUUACGGGAA | -4.1 ± 0.23 | -2.47 ± 0.17
78 | CAGGAGCAAUAUUACGGGAG | -1.92 ± 0.18 | -0.745 ± 0.17
79 | CAGGAGCAAUAUUACGGGGC | -2.17 ± 0.23 | –
80 | CAGGAGCAAUAUUACGGUCC | -2.86 ± 0.24 | -2.86 ± 0.38
81 | CAGGAGCAAUAUUACGGUUG | -1.89 ± 0.085 | -0.54 ± 0.12
82 | CAGGAGCAAUAUUACGUGAG | -1.42 ± 0.084 | -0.711 ± 0.098
83 | CAGGAGCAAUAUUACGUGGC | – | -1.5 ± 0.38
84 | CAGUAGCAAUAUUACGACUG | -4.55 ± 0.26 | -2.84 ± 0.23
85 | CAGUAGCAAUAUUACGAUGA | -1.92 ± 0.24 | 0.175 ± 0.18
86 | CAGUAGCAAUAUUACGCCAC | -2.54 ± 0.3 | –
87 | CAGUAGCAAUAUUACGCGAG | -2.01 ± 0.16 | -0.736 ± 0.12
88 | CAGUAGCAAUAUUACGCUAU | -3.57 ± 0.23 | -3.27 ± 0.32
89 | CAGUAGCAAUAUUACGCUUG | -0.882 ± 0.13 | -0.797 ± 0.22
90 | CAGUAGCAAUAUUACGGAAG | -1.9 ± 0.15 | -0.317 ± 0.14
91 | CAGUAGCAAUAUUACGGACU | -2.38 ± 0.16 | -0.698 ± 0.12
92 | CAGUAGCAAUAUUACGGAUG | -1.04 ± 0.099 | -0.362 ± 0.12
93 | CAGUAGCAAUAUUACGGCGU | -2.25 ± 0.12 | -0.753 ± 0.14
94 | CAGUAGCAAUAUUACGGGAA | -2.93 ± 0.26 | -2.44 ± 0.25
95 | CAGUAGCAAUAUUACGGUAG | -1.21 ± 0.067 | 0.0261 ± 0.098
96 | CAGUAGCAAUAUUACGUAAA | -2.13 ± 0.16 | -1.61 ± 0.24
97 | CAGUAGCAAUAUUACGUCAU | -3.37 ± 0.22 | -2.4 ± 0.26
